Assay results reported in the nanobody polyreactivity screen of Harvey et al. (2022).

experiment: yeast display, Sf9 membrane polyspecificity reagent, FACS + sequencing; frameworks hold sequencing errors
In short: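 Galactose induction of a Saccharomyces cerevisiae BJ5465 synthetic nanobody display library ran 36–48 hours. The cells were then stained for 1 hour at 4 °C with 10% biotinylated, detergent-solubilized Sf9 membrane reagent, pulled down on streptavidin microbeads and FACS-sorted into low and high (top ~1%) gates on expression and reagent-binding fluorescence. Labels for polyreactivity follow the gate of origin.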

| Sequence | polyreactivity (PSR sort gate) |
| --- | --- |
| QVQLVESGGGLVQAGGSLRLSCAASGFIFITVNAMGWYRQAPGKEREFVAAITRSGTGTYYADSVKGRFTISRDNAKNTVYLQMNSLKPEDTAVYYCAADATSTGAYDYWGQGTQVTVSS | low polyreactivity |
| QVQLVESGGGLVQAGGSLRLSCAASGFIFKGNAMGWYRQAPGKERELVAAITNRGGGTYYADSVKGRFTISRDNAKNTVYLQMNSLKPEDTAVYYCAKAYTRPFHPYDYWGQGTQVTVSS | high polyreactivity |
| QVQLVESGGGLVQAGGSLRLSCAASGFIFKHNALGWYRQAPGKERELVAAISWSGDSTYYADSVKGRFTISRDNAKNTVYLQMNSLKPEDTAVYYCAAVRALRKVRDYYYWGQGTQVTVSS | high polyreactivity |
| QVQLVESGGGLVQAGGSLRLSCAASGFIFKPYAMGWYRQAPGKERELVAAITYSGSSTYYADSVKGRFTISRDNAKNTVYLQMNSLKPEDTAVYYCAARDWSHPRRLFYWGQGTQVTVSS | high polyreactivity |
| QVQLVESGGGLVQAGGSLRLSCAASGFIFKPYDMGWYRQARGKERELVAAISWTGTSTYYADSVKGRFTISRDNAKNTVYLQMNSLKPEDTAVYYCAADFYGGFAHEYWGQGTQVTVSS | low polyreactivity |
| QVQLVESGGGLVQAGGSLRLSCAASGFIFKRYTMGWYRQAPGKERELVAAISKSGSSTYYADSVKGRFTISRDNAKNTVYLQMHSLKPEDTAVYYCAAGWGWSSFGYGYWGQGTQVTVSS | high polyreactivity |
| QVQLVESGGGLVQAGGSLRLSCAASGFIFKTYAMGWYRQAPGKERELVARISKSSGNTYYADSVKGRFTISRDNAKNTVYLQMNSLKPEDTAVYYCNRRHTSKNAYTSPSEYDYWGQGTQVTVSS | low polyreactivity |
| QVQLVESGGGLVQAGGSLRLSCAASGFIFKYNAMGWYRQAPGKERELVAAISRSGGRTYYADSVKGRFTISRDNAKNTVSLQMNSLKPEDTAVYYCAARVGVSGFEYDYWGQGTQVTVSS | high polyreactivity |
| QVQLVESGGGLVQAGGSLRLSCAASGFIFLAYAMGWYRQAPGKERELVAAISRSGGRTYYADSVKGRFTISRDNAKNTVYLQMNSLKPEDTAVYYCAPLANGTNGFYYWGQGTQVTVSS | high polyreactivity |
| QVQLVESGGGLVQAGGSLRLSCAASGFIFLAYAMGWYRQAPGKERELVAAISSGSSTSYADSVKGRFTISRDNAKNTVYLQMNSLKPEDTAVYYCNAVPSFANLTWESYDYWGQGTQVTVSS | low polyreactivity |
| QVQLVESGGGLVQAGGSLRLSCAASGFIFLDYAMGWYRQAPGKERELVAAISSRGARTYYADSVKGRFTISRDNAKNTVYLQMNSLKPEDTAVYYCAARGPLVRYGYWGHGTQVTVSS | high polyreactivity |
| QVQLVESGGGLVQAGGSLRLSCAASGFIFLGNAKGWYRQATGKERELVAAISSGGSTYADSVKGRFTISRDNAKNTVYLQMNSLKPEDTAVYYCAVDRAFRAQNYHEYDYWGQGTQVTVSS | low polyreactivity |
| QVQLVESGGGLVQAGGSLRLSCAASGFIFLGNAMGWYRQAPGKERELVAAISSGGSTYADSVKGRFTISRDNAKNTVYLQMNSLKPEDTAVYYCNTEDYTQYEPGYYPPNYYWGQGTQVTVSS | low polyreactivity |
| QVQLVESGGGLVQAGGSLRLSCAASGFIFLLYDMGWYRQAPGKERELVAAISRSGGSTYYADSVKGRFTISRDNAKNTVYLQMNSLKPEDTAVYYCNAAYRPWRGGYYPVGYYYWGQGTQVTVSS | high polyreactivity |
| QVQLVESGGGLVQAGGSLRLSCAASGFIFLNNTLGWYRQAPGKERELVAAISWSGGSTYYADSVKGRFTISRDNAKYSVYLQMNSLKPEDTAVYYCAADVKHTTEYDYWGKGTQVTVSS | high polyreactivity |
| QVQLVESGGGLVQAGGSLRLSCAASGFIFLRYVMGWYRQAPGKERELVAVITGTGVRTYADSVKGRFTISRDNAKNTVYLQMTSLKPEDTAVYYCAVVSSSREVEVLDFDYWGLGTQVTVSS | low polyreactivity |
| QVQLVESGGGLVQAGGSLRLSCAASGFIFLTNSMGWYRQAPGKERELVAAIRWSDDGTYYADSVKGRFTISRDNAKNTVYLQMNSLKPEDTEVYYCAKEVRNTVTTTGQGTQVTVSS | low polyreactivity |
| QVQLVESGGGLVQAGGSLRLSCAASGFIFLYNAMGWYRQAPGKERELVATISTGGDTTYADSVKGRFTISRDNAKNTVYLQMNSVKPEDTAVYYCAKLDLSIFRWDTEFGLYDYWGQGTQVTVLS | low polyreactivity |
| QVQLVESGGGLVQAGGSLRLSCAASGFIFNAYPMGWYRPAPGKERELVAAISSSGGRTYYADSVKGRFTISRDNAKNTVYLHMNSLKPEDTAVYYCNADKNSIIKLRGYYYWGQGTQVTVSS | high polyreactivity |
| QVQLVESGGGLVQAGGSLRLSCAASGFIFNAYVMGWYRQAPGKERELVAAITASGGSTYYADSVKGRFTISRDNAKNTVYLQMNSLKPEDTAVYYCAAAHPYDSRFDYWGQGTQVTVSS | high polyreactivity |
| QVQLVESGGGLVQAGGSLRLSCAASGFIFNINTMGWYRQAPGKERELVAAISGSGDSTYYADSVKGRFTISRDNAKNTVYLQMNSLKPEDTAVYYCNAGPWWYLHEYDYWGQGTQVTVSS | low polyreactivity |
| QVQLVESGGGLVQAGGSLRLSCAASGFIFNKYAMGWYRQAPGKERELVATIRRDGSTNYADSVKGRFTISRDNAKNTVYLQMNSQKPEDTAVYYCAVRPYYWSRDYYWGQGTQVTVSS | high polyreactivity |

| Sequence | polyreactivity (PSR sort gate) |
| --- | --- |
| QVQLVESGGGLVQAGGSLRLSCAASGFIFNLYAMGWYRQAPGKERELVAVISGSGVRTYYADSVKGRFTISRDNAKNTVYLQMNSLKPEDTAVYYCAARTYGGYEYWGQGTQVTVSS | high polyreactivity |
| QVQLVESGGGLVQAGGSLRLSCAASGFIFNLYAMGWYRQAPGKERELVAVITGSGVRTYYADSVKGRFTISRDNAKNTVYLQMNSLKPEDTAVYYCAARTYGGYEYWGQGTQVTVSS | high polyreactivity |
| QVQLVESGGGLVQAGGSLRLSCAASGFIFNSYAMGGYRQAPGKERELVAAISRRGSSTYYADSVKGRFTISRDNAKNTVYLQMKSLKPEDTAVYYCAKRDLSTSWYLRDYWGQGTQVTVSS | high polyreactivity |
| QVQLVESGGGLVQAGGSLRLSCAASGFIFNTMGWYRQAPGKERELVATISWSDGSTYYADSVKGRFTISRDNAKNTVYLQMNSLKPEDTAVYYCAADSRPWGSSMDSWGQGTQVTVSS | low polyreactivity |
| QVQLVESGGGLVQAGGSLRLSCAASGFIFNTMGWYRQAPGKERELVATMSWSDGSTYYADSVKGRFTISRDNAKNTVYLQMNSLKPEDTAVYYCAATTDALVGRPRYDYWGQGTQVTVSS | low polyreactivity |
| QVQLVESGGGLVQAGGSLRLSCAASGFIFNTNAMRWYRQAPVKEREFDAAITSSDGNTYYADSVKGRFTISRDNAKNTVYLQMNSLKPEDTAVYYCAADARTKSYVRLYDYWGQGTQVTVSS | low polyreactivity |
| QVQLVESGGGLVQAGGSLRLSCAASGFIFNYNAMGWYRQAPGKERELVAAIRTSSGSTYYADSVKGRFTISRDNAKNTVYLQMNSLKPEDTAVYYCAKTRYSTYSPIYYYWGQGTQVTVSS | high polyreactivity |
| QVQLVESGGGLVQAGGSLRLSCAASGFIFNYYDMGWYRQAPGKERELVAAITYSVGSTYYADSVKGRFTISRDNAKNTVYLQMNSLKPEDTAVYYCNKDFLYGIYSYDYWGQGTQVTVSS | high polyreactivity |
| QVQLVESGGGLVQAGGSLRLSCAASGFIFPAYAMGWYRQAPGKEMALVAAITSGGSTNYADSVKGRFTISRDNAKNTVYLQMNSLKPEDTAVYYCAADFDSILSVRSYRSRWYDYWGQGTQVAVSS | low polyreactivity |
| QVQLVESGGGLVQAGGSLRLSCAASGFIFPDNAMGWYRQAPGKERELVATITSGGNTYYADSVKGRFTISRDNAKNTVYIQMNSLKPEDTAVYYSAAEWDYYDYDWYIAWTIDYWGQGTQVTVSS | low polyreactivity |
| QVQLVESGGGLVQAGGSLRLSCAASGFIFPDYGMGSYRQAPGKERELVAAIYRNGVSTYYADSVKGRFTISRDNAKNTVYLQMKSLKPEDTAVYYCAARFYRIRRVSKSGYYWGLGTQVTVSS | low polyreactivity |
| QVQLVESGGGLVQAGGSLRLSCAASGFIFPGYAMGWYRQAPGKEREFVAVISRSGVRTYYADSVKGRFTISRDNAKNTVYLQMNSLKPEDTAVYYCAARYYSTDLEYWGQGTQVTVSS | low polyreactivity |
| QVQLVESGGGLVQAGGSLRLSCAASGFIFPLYTMGWYRQAPGKERELVAAISWIGGRTYYADSVKGRFTISRDNAKNTVYLQMNSLKPEDSAVYYCAKDPTGGGYGYDYWGQGTQVTVSS | low polyreactivity |
| QVQLVESGGGLVQAGGSLRLSCAASGFIFPNKAMGWYRQAPGKERELVARISYGGGDTHYADSVKGRFTISRDNAKNTVYLQMNSLKPEDTAVYYCSYYYWGQGTQVTVSS | low polyreactivity |
| QVQLVESGGGLVQAGGSLRLSCAASGFIFPRYFMGLYRQAPGKERELVAAINSDISTNYADSVKWRFTISRDNAKNTVYLQMNSLKPEDTAVYYCAADRWDDPWEFDYWGQCTQVTVSS | low polyreactivity |
| QVQLVESGGGLVQAGGSLRLSCAASGFIFPWNAMAWYRQAPRKERELVAAISFSGGSTYYADSVKGRFTISRDNAKNTVYLQMNSLKPEDTAVYYCAKRTWDLRRTRHYYWGQGTQVTVSS | low polyreactivity |
| QVQLVESGGGLVQAGGSLRLSCAASGFIFPYNTMGWYRQATAKERELVAAIRYSAGRTYYADSVKGRFTISRDNAKNTVYLQMNSLKPEDTEVYYCNGVSSGDMDYWGQGTQVTVSS | high polyreactivity |
| QVQLVESGGGLVQAGGSLRLSCAASGFIFPYYAMGWYRQAPGKERELVAAISGSGGSTYYADSVKGRFTISRDNANYTVYLQMNSLKPEDTAVYYCAASARRLNMGYWGQGTQVTVSS | high polyreactivity |
| QVQLVESGGGLVQAGGSLRLSCAASGFIFQGNAKGWYRQAPGKERELVAAITRGGGRTYYADSVKGRFTISRDNSKNTVYLQMNSLKPEDSAVNYCNAVGRSKYDYWGQGTQVTVSW | high polyreactivity |
| QVQLVESGGGLVQAGGSLRLSCAASGFIFQIYAMGWYRQAPGKERELVAAISSGGSTNYADSVKGRFTISRDNAKNTVYVQMNSMKPEDTAVYYCAAATHYWYFYSFKDKSGFRGYYWGQGTQVTVSS | high polyreactivity |
| QVQLVESGGGLVQAGGSLRLSCAASGFIFQIYPMGWYRQAPGKERELVAAISSGGSTNYADSVKGRFTISRDNAKNTVYLQMNSLKPEDTAVYYCAAATHYWYFYSFKDKSGFRGYYWGQGTQVTVSS | high polyreactivity |
